For series [1], the target named is T1, BAFF-R (B-cell activating factor receptor, TNFRSF13C) (Homo sapiens, UniProt Q96RJ3 Q96RJ3:1-76).
T1 sequence: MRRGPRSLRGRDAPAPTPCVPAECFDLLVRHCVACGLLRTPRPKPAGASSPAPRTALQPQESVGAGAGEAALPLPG
Nature of the series: EMSA; high-salt binding buffer; about. To be noted: tags: ProSpect (Israel), human recombinant; label: 5'-32P or Cy3. Here is the method: (§1) Filter binding assays were used to detect the binding affinity of the individual aptamers. The RNA pool was treated with Calf Intestinal Phoshatase (CIP) to remove the initiating 5′-triphosphate and labeled with γ-³²P-ATP by T4 polynucleotide kinase and the end-labeled RNA pool (10 nM) was incubated with BAFF-R protein (100 nM) and a 10-fold molar excess of nonspecific competitor tRNA (100 nM) in the high-salt RNA binding buffer for 30 min. A 50 μL of binding reaction was separated by a pre-wet nitrocellulose filter. After the filter was washed with 2 mL binding buffer, the radioactivity retained on the filter was counted by a multi-purpose scintillation counter (Beckman Coulter).
(§2) The binding activities of the RNA pools were further confirmed by gel shift assays. Briefly, the BAFF-R protein was serially diluted to the desired concentrations (0˜2560 nM). A constant amount of P³² end-labeled RNA (2 nM) was used. The binding reaction was performed as described above. […] Following electrophoresis the gel was exposed to a Phosphor image screen and the radioactivity was quantified using a Typhoon scanner. The dissociation constants were calculated using non-linear curve regression with a Graph Pad Prism. […] The dissociation constants (Kd) for selected aptamers (R-1, R-2 and R-14) with the target protein were calculated from a native gel mobility shift assay (FIG. 16A).

In series [2] the target is T1, BAFF-R (B-cell activating factor …). Description: EMSA; about; R-22 used as low-affinity negative control. The settings on record: tags: ProSpect (Israel), human recombinant; label: 32P. Here is the method:
(§3) The binding activities of the RNA pools were further confirmed by gel shift assays. Briefly, the BAFF-R protein was serially diluted to the desired concentrations (0˜2560 nM). A constant amount of P³² end-labeled RNA (2 nM) was used. The binding reaction was performed as described above. After incubation, 25 μL of binding reaction was loaded into a 5% non-denaturing polyacrylamide gel. Following electrophoresis the gel was exposed to a Phosphor image screen and the radioactivity was quantified using a Typhoon scanner. The dissociation constants were calculated using non-linear curve regression with a Graph Pad Prism. […] The dissociation constants (Kd) for selected aptamers (R-1, R-2 and R-14) with the target protein were calculated from a native gel mobility shift assay (FIG. 16A).
(§4) Binding affinities were also assessed by flow cytometry (FIG. 28). […] To determine if the bound chimeras were internalized in the BAFF-R expressing cells, out Z-axis confocal microscopy was performed with Jeko-1 cells and CEM control cells incubated with Cy3-labeled transcripts as described above. […] To visualize the nucleus, the cells were stained with the nuclear dye Hoechst 33342 after incubation with Cy3-RNA.

Series [3] has the same target. Nature of the series: EMSA; about; UU linker. The settings on record: tags: ProSpect (Israel), human recombinant; label: 32P. As to the method:
as §3, §4

For series [4] the target is unchanged. Nature of the series: EMSA; 8U linker. To be noted: tags: ProSpect (Israel), human recombinant; label: 32P. Here is the method:
as §3
(§5) The binding affinities of the chimeras for BAFF-R protein were assessed by gel shift assay (FIG. 40C and FIG. 49A). […] To determine whether the bound chimera is internalized by BAFF-R expressing cells, real-time Z-axis confocal microscopy was performed (FIG. 41A-C and FIG. 49B). The Cy3-labeled chimeras were successfully internalized into BAFF-R expressing cells (Jeko-1 and Z138) after 5 h post treatment.

Series [5] has the same target. Description: EMSA; high-salt binding buffer (10 mM HEPES pH 7.4, 150 mM NaCl, 1 mM CaCl2, 1 mM MgCl2, tRNA); about. The settings on record: tags: ProSpect (Israel), human recombinant; label: 5'-32P or Cy3. As to the method:
as §1, §2

The target is the same in series [6]. Description: EMSA; parental R-1 in STAT3 chimera comparison. The settings on record: tags: ProSpect (Israel), human recombinant; label: 5'-32P or Cy3. As to the method: as §3, §5

Substitutions are numbered along the chain they refer to.

B1: R-14 aptamer (ssRNA)
RNA: GGGAGGACGAUGCGGAUAACUAUUGUGCUAGAGGGCUUAUUUAUGUGAGCCGGUUGAUAGUUGCGCAGACGACUCGCCCGA
modifications: 2'-F pyrimidines (2'-F-C, 2'-F-U)
On to B1, for which the Kd in series [1] amounted to 96 nM.

B2: R-22 D-1 chimera (mixed)
RNA 1: GGAGGACGAUGCGGAUCCUCCGAAGGUCGCGCCAACGUCACACAUUAAGCUUUUGUUCGUCUGCAGACGACUCGCCCGAUUCCACAGAUGUGAAGUUCAUUUCCAA
RNA 2: UUGGAAAUGAACUUCACAUCUGUGGCA
modifications: 2'-F pyrimidines in transcribed aptamer-sense strand
As to B2, the Kd in series [2] came to 191 nM.

B3: R-1 D-1-Mutated chimera (mixed)
RNA 1: GGGAGGACGAUGCGGGAGGCUCAACAAUGAUAGAGCCCGCAAUGUUGAUAGUUGUGCCCAGUCUGCAGACGACUCGCCCGAUUCUCCAGAUUCCAAGCACAUUGUGAA
RNA 2: UUCACAAUGUGCUUGGAAUCUGGAGCA
modifications: 2'-F pyrimidines in transcribed aptamer-sense strand
As for B3, in series [3], the Kd came to 51 nM.

B4: R-1 D-1 chimera (CCND1 siRNA design 1) (mixed)
RNA 1: B3 RNA 1 with U85C, C86A, U92G, C93U, C94G, C98U, A99U, G104U, U105C, G106C
RNA 2: UUGGAAAUGAACUUCACAUCUGUGGCA
modifications: 2'-F pyrimidines in transcribed aptamer-sense strand
For B4, in series [3], the Kd is 66 nM.

B5: R-1 D-2 chimera (CCND1 siRNA design 2) (mixed)
RNA 1: GGGAGGACGAUGCGGGAGGCUCAACAAUGAUAGAGCCCGCAAUGUUGAUAGUUGUGCCCAGUCUGCAGACGACUCGCCCGAUUUGUGCCACAGAUGUGAAGUUCAUUUCC
RNA 2: AAAUGAACUUCACAUCUGUGGCACA
modifications: 2'-F pyrimidines in transcribed aptamer-sense strand
For the molecule B5, the Kd in series [3] was found to be 126 nM.

B6: R-14 D-1 chimera (mixed)
RNA 1: GGGAGGACGAUGCGGAUAACUAUUGUGCUAGAGGGCUUAUUUAUGUGAGCCGGUUGAUAGUUGCGCAGACGACUCGCCCGAUUCCACAGAUGUGAAGUUCAUUUCCAA
RNA 2: UUGGAAAUGAACUUCACAUCUGUGGCA
modifications: 2'-F pyrimidines in transcribed aptamer-sense strand
With B6, in series [3], the Kd was 80 nM.

B7: R-1-STAT3 27-mer OVH chimera (mixed)
RNA 1: GGGAGGACGAUGCGGGAGGCUCAACAAUGAUAGAGCCCGCAAUGUUGAUAGUUGUGCCCAGUCUGCAGACGACUCGCCCGAUUUUUUUUGAGAACGGAAGCUGCAGAAAGAUACGA
RNA 2: GUAUCUUUCUGCAGCUUCCGUUCUC
modifications: 2'-F pyrimidines in transcribed aptamer strand
In the case of B7, in series [4], the Kd is 35 nM.

B8: R-1-STAT3 27-mer SWAP chimera (mixed)
RNA 1: GGGAGGACGAUGCGGGAGGCUCAACAAUGAUAGAGCCCGCAAUGUUGAUAGUUGUGCCCAGUCUGCAGACGACUCGCCCGAUUUUUUUUUCAGUCGUAUCUUUCUGCAGCUUCCGU
RNA 2: GGAAGCUGCAGAAAGAUACGACUGA
modifications: 2'-F pyrimidines in transcribed aptamer strand
Turning to B8, the Kd in series [4] is 56 nM.

B9: R-14 D-2 chimera (mixed)
RNA 1: GGGAGGACGAUGCGGAUAACUAUUGUGCUAGAGGGCUUAUUUAUGUGAGCCGGUUGAUAGUUGCGCAGACGACUCGCCCGAUUUGUGCCACAGAUGUGAAGUUCAUUUCC
RNA 2: AAAUGAACUUCACAUCUGUGGCACA
modifications: 2'-F pyrimidines in transcribed aptamer-sense strand
In the case of B9, in series [3], the Kd turned out to be 73 nM.

B10: R-1 aptamer (ssRNA)
RNA: GGGAGGACGAUGCGGGAGGCUCAACAAUGAUAGAGCCCGCAAUGUUGAUAGUUGUGCCCAGUCUGCAGACGACUCGCCCGA
modifications: 2'-F pyrimidines (2'-F-C, 2'-F-U)
For B10, the Kd came to 47 nM in series [5] and 54 nM in series [6].
